Assay results reported in publication PMC4018492 (Genes & Development, 2014).
One block for each binder: values may come before it.

Experiments:
[1] = target: 6xHis-WDR5 (residues 23–334) (human, UniProt P61964 23-334); experiment: pull-down
WDR5_(23–334) [2] = target: T1, WDR5_(23–334) (human, UniProt P61964 23-334); experiment: SEC
WDR5_(23–334) [3] = target: T1, WDR5_(23–334); experiment: ITC

- binding result [1]: binds
B1: KANSL1_(537–773) (domain or fragment)
chain: KSCGALRPVNGVINTLQPVLADHIPGDSSDAEEQLHKKQRLNLVSSSSDGTCVAARTRPVLSCKKRRLVRPNSIVPLSKKVHRNSTIRPGCDVNPSCALCGSGSINTMPPEIHYEAPLLERLSQLDSCVHPVLAFPDDVPTSLHFQSMLKSQWQNKPFDKIKPPKKLSLKHRAPMPGSLPDSARKDRHKLVSSFLTTAKLSHHQTRPDRTHRQHLDDVGAVPMVERVTAPKAERLLN

- binding result (WDR5_(23–334) [2]): binds
B2: KANSL2_(381–492) (domain or fragment)
chain: DDLEAGPMDLYLSAAELQPTESLPLEFSDDLDVVGDGMQCPPSPLLFDPSLTLEDHLVKEIAEDPVDILGQMQMAGDGCRSQGSRNSEKASAPLSQSGLATANGKPEPTSIS

- Kd (WDR5_(23–334) [3]): 180 nM
Binder: DGTCVAARTRPVLSY [KANSL1 WIN motif-containing peptide (585-DGTCVAARTRPVLS-598-Y)]
